Data on one molecule can be found in doi:10.1101/2023.11.30.569392.

The target of the data set is T1, recTZF-WT (GST-TEV-TTP TZF) (Mus musculus, UniProt P22893 93-165).
T1 sequence: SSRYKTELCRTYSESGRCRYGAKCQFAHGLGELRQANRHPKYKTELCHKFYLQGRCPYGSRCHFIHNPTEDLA
Kind of data set: EMSA. (Mobility shift assays separate free from complexed probe on a gel.)

On to AUUAUUUAUUAUUUAUUUAUUAUUUA (ssRNA) [Tnf-ARE], for which the binding result is recorded as “binds”.
